Measured values taken from article PMC8191293.
Changes are numbered by the printed parent chain. In names and notes the source's numbering stands.

B1: peripheral myelin protein 22 (PMP22): L16P/N41Q (protein)
parent chain: MLLLLLSIIVLHVAVPVLLFVSTIVSQWIVGNGHATDLWQNCSTSSSGNVHHCFSSSPNEWLQSVQATMILSIIFSILSLFLFFCQLFTLTKGGRFYITGIFQILAGLCVMSAAAIYTVRHPEWHLNSDYSYGFAYILAWVAFPLALLSGVIYVILRKRE
B2: peripheral myelin protein 22 (PMP22): STT3A KO (protein)
parent chain: B1 parent chain with P16L
B3: peripheral myelin protein 22 (PMP22): STT3B KO (protein)
parent chain: B1 parent chain with P16L
B4: peripheral myelin protein 22 (PMP22): NGI-1 (protein)
parent chain: B1 parent chain with P16L
B5: peripheral myelin protein 22 (PMP22): N41Q (protein)
parent chain: B1 parent chain with P16L
B6: peripheral myelin protein 22 (PMP22): C19 (protein)
parent chain: B1 parent chain with P16L
B7: peripheral myelin protein 22 (PMP22): UGGT1 KO (protein)
parent chain: B1 parent chain with P16L
B8: peripheral myelin protein 22 (PMP22): A67T/N41Q (protein)
parent chain: B1 parent chain with P16L, A67T
B9: peripheral myelin protein 22 (PMP22): G93R/N41Q (protein)
parent chain: B1 parent chain with P16L, G93R
B10: peripheral myelin protein 22 (PMP22): T118M/N41Q (protein)
parent chain: B1 parent chain with P16L, T118M

Assays:
[1] = flow cytometry, total cellular PMP22, HEK293; conditions: glycan lost; control: same variant with N41 intact
[2] = flow cytometry, cell surface PMP22, rat Schwann cells; conditions: glycan lost; control: same variant with N41 intact
[3] = flow cytometry, total PMP22, primary rat Schwann cells; conditions: glycan lost; control: same variant with N41 intact
[4] = single-cell flow cytometry, surface/total PMP22, HEK293; conditions: glycan lost
[5] = flow cytometry, trafficking efficiency, rat Schwann cells; conditions: glycan lost; control: same variant with N41 intact
[6] = flow cytometry, normalized trafficking efficiency of WT PMP22; conditions: glycan lost; control: WT PMP22 in untreated or DMSO-treated HEK293
[7] = flow cytometry, trafficking efficiency of CMTD PMP22 variants; conditions: glycan lost; control: same CMTD variant in untreated HEK293
[8] = flow cytometry, total cellular PMP22; conditions: glycan changed form; control: WT PMP22 in parental HEK293
[9] = flow cytometry, trafficking efficiency; conditions: glycan changed form; control: WT PMP22 in parental HEK293
[10] = flow cytometry, cell surface PMP22, HEK293; conditions: glycan lost; control: same CMTD variant with N41 intact

Protein	expression_or_secretion [1]	localisation_or_trafficking, fold_change [6]	localisation_or_trafficking [7]	localisation_or_trafficking [10]	further results
B1	no change	–	–	–	localisation_or_trafficking [2]: increases; expression_or_secretion [3]: no change; localisation_or_trafficking, other: trafficking efficiency ([4]; control: L16P PMP22): increases, 34 ± 10 vs 3 ± 1; localisation_or_trafficking [5]: increases
B2	–	no change	no change	–	–
B3	–	increases	no change	–	–
B4	–	increases	increases	–	–
B5	–	–	–	–	localisation_or_trafficking, other: trafficking efficiency ([4]; control: wild type): increases, 53 ± 7 vs 19 ± 5
B6	–	increases	–	–	–
B7	–	–	–	–	expression_or_secretion [8]: decreases; localisation_or_trafficking [9]: decreases
B8	increases	–	–	increases	–
B9	increases	–	–	increases	–
B10	increases	–	–	increases	–
